Experimental findings from patent publication US8748182B2, “Mutant proteins and methods for producing them” (Heptares Therapeutics Limited, priority 2007, dated 2014) are described below.

Data set [1] can be described thus: Thermostability assay of detergent-solubilised βAR34-424 and mutants expressed in E. coli ([3H]-DHA binding after heating 30 min). As to conditions: for Tm (° C.): heated 30 min without ligand, then [3H]-DHA binding, E. coli, mean ± S.E. from duplicates; for Tm (° C.) / increase in Tm compared to βAR34-424 (native protein): DDM-solubilised; for increase in Tm compared to βAR34-424 (native protein): heated without ligand.
Method: To determine Tm in the absence of ligand (apo-state, discontinuous lines), detergent-solubilised receptors were incubated for 30 minutes at the temperatures indicated before carrying out the binding assay. […] Data points are from duplicates measurements in a representative experiment.
Binding assays were performed using [^3H]-dihydroalprenolol (DHA) as radioligand as described under “Methods”. Samples were heated for 30 minutes at different temperatures before the assay. […] Data points are from duplicates of one single experiment. This experiment has been repeated several times with similar results.
Expression of βAR and the mutants was performed in XL10 cells (Stratagene). Cultures of 50 ml of 2×TY medium containing ampicillin (100 μg/ml) were grown at 37° C. with shaking until OD600=3 and then induced with 0.4 mM IPTG. Induced cultures were incubated at 25° C. for 4 h and then cells were harvested by centrifugation at 13,000×g for 1 min (aliquots of 2 ml) and stored at −20° C. For the assays, cells were broken by freeze-thaw (five cycles), resuspended in 500 μl of buffer [20 mM Tris pH 8, 0.4 M NaCl, 1 mM EDTA and protease inhibitors (Complete™, Roche)]. After an incubation for 1 h at 4° C. with 100 μg/ml lysozyme and DNase I (Sigma), samples were solubilized with 2% DDM on ice for 30 minutes. Insoluble material was removed by centrifugation (15,000×g, 2 min, 4° C.) and the supernatant was used directly in radioligand binding assays.
Single point binding assays contained 20 mM Tris pH 8, 0.4 M NaCl, 1 mM EDTA, 0.1% DDM (or corresponding detergent) with 50 nM [^3H]-DHA and 20-100 μg membrane protein in a final volume of 120 μl; equilibration was for 1 h at 4° C. Thermostability was assessed by incubating the binding assay mix, with or without [^3H]-DHA at the specified temperature for 30 minutes; reactions were placed on ice and [^3H]-DHA added as necessary and equilibrated for a further hour. […] Radioactivity was counted on a Beckman LS6000 liquid scintillation counter and data were analyzed by nonlinear regression using Prism software (GraphPad).

A short description of data set [2]: Thermostability of solubilised adenosine A2a receptor and mutants (radioligand binding after or during heating). It is filed as physicochemical. From the text: FIG. 12 Flow chart showing the two different assay formats of ligand (+) and ligand (−) used to determine receptor thermostablity.
• 1. 315 site-directed mutants made between residues 2-316 of A2aR. • 2. All of these mutants have been assayed for thermostability using an assay measuring agonist and antagonist binding after the heating step (Ligand(−) format as described in FIG. 12). • a. […] Mutations have been combined to generate mutants in a putative antagonist conformation. Wildtype A2aR has a Tm of 31° C. with ZM241385 bound. • a. Rant17 A54L+K122A+L235A Tm 48° C. (ZM241385 bound) • b. Rant19 A54L,T88A,V239A+A204L Tm 47° C. (ZM241385 bound) • c. Rant21 A54L,T88A,V239A+K122A Tm 49° C. (ZM241385 bound) • 4. Mutations from the agonist screen have been combined, but have led to only a very low level of improvement in Tm of +2° C.

The mark [3] stands for this setting: Ligand(−) format, binding after the heating step.
The mark [4] stands for this setting: 1% DDM (no glycerol), apo-state, S.D. <1° C.
Setting [5] is: 1% DDM (no glycerol), ligand-occupied state, S.D. <1° C.

As for m7-2: βAR34-424 with M90V, A282L, the “Tm (° C.)” value in data set [1] (Table 1) is 38.9 ± 0.6 °C.
Y227A: βAR34-424 point mutant Y227A: the “increase in Tm compared to βAR34-424 (native protein)” value in data set [1] is 8 °C.
On to “m6-5: βAR34-424 with R68S, A234L, A282L, A334L”, for which, in data set [1] (Table 1), the “Tm (° C.)” value turned out to be 41.9 ± 0.5 °C.
With “m21: βAR34-424 with R68S, M90V, Y227A, F327A, A334L”, the “Tm (° C.)” value in data set [1] (Table 2) is 47.0 ± 1.3 °C.
Regarding “m6-11: βAR34-424 with R68S, A282L, A334L”, the “Tm (° C.)” value in data set [1] (Table 1) was determined as 39.1 ± 0.5 °C.
On the same count and under the same terms, the result for “m10-4: βAR34-424 with R68S, M90V, V230A, A334L” reads 46.9 ± 1.0 °C; that for “m6-9: βAR34-424 with R68S, Y227A, A234L, A282L, A334L”, 43.7 ± 0.4 °C; that for m7-6: βAR34-424 with M90V, I129V, 40.0 ± 0.6 °C.
With m4-7: βAR34-424 with G67A, G98A, V230A, in data set [1] (Table 1), the “Tm (° C.)” value worked out at 38.0 ± 1.2 °C. Besides, the “further increase in Tm on adding one mutation to the preceding mutant” value in data set [1] (m4-1 to m4-7 to m4-2, m18 to m23) turned out to be 2 °C.
For the molecule “m10-8: βAR34-424 with R68S, M90V, V230A, F327A, A334L”, in data set [1] (Table 1), the “Tm (° C.)” value was found to be 47.3 ± 1.4 °C.
On the same count and under the same terms, with m7-1: βAR34-424 with M90V, A282L, F338M the figure was 43.0 ± 0.8 °C.
For the molecule m7-5: βAR34-424 with M90V, Y227A, the “increase in Tm compared to βAR34-424 (native protein)” value in data set [1] stood at 13 °C. Further, in data set [1] (Table 1), the “Tm (° C.)” value came to 45.2 ± 1.0 °C.

B1: R199A: A2aR point mutant (protein, UniProt P29274 1-412, looked up, variant R199A)
Adenosine receptor A2a: MPIMGSSVYITVELAIAVLAILGNVLVCWAVWLNSNLQNVTNYFVVSLAAADIAVGVLAIPFAITISTGFCAACHGCLFIACFVLVLTQSSIFSLLAIAIDRYIAIRIPLRYNGLVTGTRAKGIIAICWVLSFAIGLTPMLGWNNCGQPKEGKNHSQGCGEGQVACLFEDVVPMNYMVYFNFFACVLVPLLLMLGVYLAIFLAARRQLKQMESQPLPGERARSTLQKEVHAAKSLAIIVGLFALCWLPLHIINCFTFFCPDCSHAPLWLMYLAIVLSHTNSVVNPFIYAYRIREFRQTFRKIIRSHVLRQQEPFKAAGTSARVLAAHGSDGEQVSLRLNGHPPGVWANGSAPHPERRPNGYALGLVSGGSAQESQGNTGLPDVELLSHELKGVCPEPPGLDDPLAQDGAGVS
As for B1, the “thermostability measured with 3H-NECA (agonist)” value (“thermostability measured” below) in data set [2] (setting [3]) is listed as “improved thermostability”.

B2: Rag 1: A2aR with A184L/R199A/L272A (protein, UniProt P29274 1-412, looked up, variant A184L R199A L272A)
Adenosine receptor A2a: MPIMGSSVYITVELAIAVLAILGNVLVCWAVWLNSNLQNVTNYFVVSLAAADIAVGVLAIPFAITISTGFCAACHGCLFIACFVLVLTQSSIFSLLAIAIDRYIAIRIPLRYNGLVTGTRAKGIIAICWVLSFAIGLTPMLGWNNCGQPKEGKNHSQGCGEGQVACLFEDVVPMNYMVYFNFFLCVLVPLLLMLGVYLAIFLAARRQLKQMESQPLPGERARSTLQKEVHAAKSLAIIVGLFALCWLPLHIINCFTFFCPDCSHAPLWLMYAAIVLSHTNSVVNPFIYAYRIREFRQTFRKIIRSHVLRQQEPFKAAGTSARVLAAHGSDGEQVSLRLNGHPPGVWANGSAPHPERRPNGYALGLVSGGSAQESQGNTGLPDVELLSHELKGVCPEPPGLDDPLAQDGAGVS
Take B2: the “Tm (° C.) − agonist” value in data set [2] (setting [4]) amounted to 26 °C. In addition, the “Tm (° C.) + agonist” value in data set [2] (setting [5]) was found to be 34 °C.

B3: Q210A: A2aR point mutant (protein, UniProt P29274 1-412, looked up, variant Q210A)
Adenosine receptor A2a: MPIMGSSVYITVELAIAVLAILGNVLVCWAVWLNSNLQNVTNYFVVSLAAADIAVGVLAIPFAITISTGFCAACHGCLFIACFVLVLTQSSIFSLLAIAIDRYIAIRIPLRYNGLVTGTRAKGIIAICWVLSFAIGLTPMLGWNNCGQPKEGKNHSQGCGEGQVACLFEDVVPMNYMVYFNFFACVLVPLLLMLGVYLRIFLAARRQLKAMESQPLPGERARSTLQKEVHAAKSLAIIVGLFALCWLPLHIINCFTFFCPDCSHAPLWLMYLAIVLSHTNSVVNPFIYAYRIREFRQTFRKIIRSHVLRQQEPFKAAGTSARVLAAHGSDGEQVSLRLNGHPPGVWANGSAPHPERRPNGYALGLVSGGSAQESQGNTGLPDVELLSHELKGVCPEPPGLDDPLAQDGAGVS
Take B3: the “thermostability measured” value in data set [2] (setting [3]) is reported as “improved thermostability”.

B4: S213A: A2aR point mutant (protein, UniProt P29274 1-412, looked up, variant S213A)
Adenosine receptor A2a: MPIMGSSVYITVELAIAVLAILGNVLVCWAVWLNSNLQNVTNYFVVSLAAADIAVGVLAIPFAITISTGFCAACHGCLFIACFVLVLTQSSIFSLLAIAIDRYIAIRIPLRYNGLVTGTRAKGIIAICWVLSFAIGLTPMLGWNNCGQPKEGKNHSQGCGEGQVACLFEDVVPMNYMVYFNFFACVLVPLLLMLGVYLRIFLAARRQLKQMEAQPLPGERARSTLQKEVHAAKSLAIIVGLFALCWLPLHIINCFTFFCPDCSHAPLWLMYLAIVLSHTNSVVNPFIYAYRIREFRQTFRKIIRSHVLRQQEPFKAAGTSARVLAAHGSDGEQVSLRLNGHPPGVWANGSAPHPERRPNGYALGLVSGGSAQESQGNTGLPDVELLSHELKGVCPEPPGLDDPLAQDGAGVS
B4: the “thermostability measured” value in data set [2] (setting [3]) is reported as “improved thermostability”.

B5: Rant 5: A2aR with A54L/T88A/V239A (protein, UniProt P29274 1-412, looked up, variant A54L T88A V239A)
Adenosine receptor A2a: MPIMGSSVYITVELAIAVLAILGNVLVCWAVWLNSNLQNVTNYFVVSLAAADILVGVLAIPFAITISTGFCAACHGCLFIACFVLVLAQSSIFSLLAIAIDRYIAIRIPLRYNGLVTGTRAKGIIAICWVLSFAIGLTPMLGWNNCGQPKEGKNHSQGCGEGQVACLFEDVVPMNYMVYFNFFACVLVPLLLMLGVYLRIFLAARRQLKQMESQPLPGERARSTLQKEVHAAKSLAIIAGLFALCWLPLHIINCFTFFCPDCSHAPLWLMYLAIVLSHTNSVVNPFIYAYRIREFRQTFRKIIRSHVLRQQEPFKAAGTSARVLAAHGSDGEQVSLRLNGHPPGVWANGSAPHPERRPNGYALGLVSGGSAQESQGNTGLPDVELLSHELKGVCPEPPGLDDPLAQDGAGVS
For the molecule B5, the “Tm (° C.) − antagonist” value in data set [2] (setting [4]) amounted to 42 °C. In addition, in data set [2] (setting [5]), the “Tm (° C.) + antagonist” value is 46 °C.

B6: L208A: A2aR point mutant (protein, UniProt P29274 1-412, looked up, variant L208A)
Adenosine receptor A2a: MPIMGSSVYITVELAIAVLAILGNVLVCWAVWLNSNLQNVTNYFVVSLAAADIAVGVLAIPFAITISTGFCAACHGCLFIACFVLVLTQSSIFSLLAIAIDRYIAIRIPLRYNGLVTGTRAKGIIAICWVLSFAIGLTPMLGWNNCGQPKEGKNHSQGCGEGQVACLFEDVVPMNYMVYFNFFACVLVPLLLMLGVYLRIFLAARRQAKQMESQPLPGERARSTLQKEVHAAKSLAIIVGLFALCWLPLHIINCFTFFCPDCSHAPLWLMYLAIVLSHTNSVVNPFIYAYRIREFRQTFRKIIRSHVLRQQEPFKAAGTSARVLAAHGSDGEQVSLRLNGHPPGVWANGSAPHPERRPNGYALGLVSGGSAQESQGNTGLPDVELLSHELKGVCPEPPGLDDPLAQDGAGVS
As for B6, the “thermostability measured” value in data set [2] (setting [3]) is “improved thermostability”.

B7: A203L: A2aR point mutant (protein, UniProt P29274 1-412, looked up, variant A203L)
Adenosine receptor A2a: MPIMGSSVYITVELAIAVLAILGNVLVCWAVWLNSNLQNVTNYFVVSLAAADIAVGVLAIPFAITISTGFCAACHGCLFIACFVLVLTQSSIFSLLAIAIDRYIAIRIPLRYNGLVTGTRAKGIIAICWVLSFAIGLTPMLGWNNCGQPKEGKNHSQGCGEGQVACLFEDVVPMNYMVYFNFFACVLVPLLLMLGVYLRIFLLARRQLKQMESQPLPGERARSTLQKEVHAAKSLAIIVGLFALCWLPLHIINCFTFFCPDCSHAPLWLMYLAIVLSHTNSVVNPFIYAYRIREFRQTFRKIIRSHVLRQQEPFKAAGTSARVLAAHGSDGEQVSLRLNGHPPGVWANGSAPHPERRPNGYALGLVSGGSAQESQGNTGLPDVELLSHELKGVCPEPPGLDDPLAQDGAGVS
Regarding B7, in data set [2] (setting [3]), the “thermostability assayed with 3H-ZM241385 (antagonist)” value was “improved thermostability” and the “thermostability measured” value was “improved thermostability”.
